# From patent publication US20230241185A1, “COMPOSITION COMPRISING A DNA-DEGRADING ENZYME FOR USE IN A METHOD FOR THE TREATMENT OF IMMUNOSUPPRESSION AFTER ACUTE TISSUE INJURY” (Klinikum der Universität München, priority 2020, published 2023)
# Read-outs that look alike come from different tables or passages of the source. Residues, ends and D or L forms follow the SMILES beside them. *: point of attachment. Cbz = O=C(OCc1ccccc1)*; CH2F = FC*
# B1: rIL-1β: Murine recombinant IL-1β (401-ML, R&D systems) (protein, UniProt P10749 118-269, looked up)
# Interleukin-1 beta: VPIRQLHYRLRDEQQKSLVLSDPYELKALHLNGQNINQQVIFSMSFVQGEPSNDKIPVALGLKGKNLYLSCVMKDGTPTLQLESVDPKQYPKKKMEKRFVFNKIEVKSKVEFESAEFPNWYISTSQAEHKPVFLGNNSGQDIIDFTMESVSS
# Experiments:
# [1] = test system: caspase-1 activity in splenic CD11b^+ monocytes; experiment: FAM FLICA flow cytometry of caspase-1 activity (inflammasome activation) in splenic monocytes after stroke; format: in vivo, mice; conditions: caspase-8 or caspase-9 inhibitor vs vehicle, 18 h after stroke, normalized to sham
# Source text: (§1) Mice were anaesthetized with isoflurane delivered in a mixture of 30% O2 and 70% N2O. An incision was made between the ear and the eye in order to expose the temporal bone. Mice were placed in supine position, and a laser Doppler probe was affixed to the skull above the middle cerebral artery (MCA) territory. The common carotid artery and left external carotid artery were exposed via midline incision and further isolated and ligated. A 2-mm silicon-coated filament (Doccol) was inserted into the internal carotid artery, advanced gently to the MCA until resistance was felt, and occlusion was confirmed by a corresponding decrease in blood flow (i.e., a decrease in the laser Doppler flow signal by 80%. After 60 minutes of occlusion, the animals were re-anesthetized, and the filament was removed. After recovery, the mice were kept in their home cage with ad libitum access to water and food. Sham-operated mice received the same surgical procedure, but the filament was […] in lieu of being advanced to the MCA. Body temperature was maintained at 37° C. throughout surgery in all mice via feedback-controlled heating pad. The overall mortality rate of animals subjected to MCA occlusion was approximately 20%. All animals in the sham group survived the procedure. Exclusion criteria: 1. Insufficient MCA occlusion (a reduction in blood flow to […] of the baseline value). 2. Death during the surgery. 3. Lack of brain ischemia as quantified post-mortem by histological analysis.
# Human recombinant DNase (hrDNase): 1000 U of human recombinant DNase (Roche, Switzerland) dissolved in incubation 1× buffer (40 mM Tris-HCl, 10 mM NaCl, 6 mM MgCl2, 1 mM CaCl2, pH 7.9, diluted in PBS, Roche) was injected i.v. in the tail vein 1 hour after surgery in a final volume of 100 μl. The control group was administered vehicle injections at the same volume, route, and timing as experimental animals.
# Caspase-8 inhibitor (Z-IETD-FMK) & Caspase-9 inhibitor (Z-LEHD-FMK): The apoptosis inhibitors Z-IETD-FMK and Z-LEHD-FMK (R&D systems, US) in DMSO dissolved in PBS and injected i.p. 30 minutes after surgery. Z-LEHD-FMK was injected at a dose of […] body weight at a final volume of 200 μl. Z-IETD-FMK was injected at a dose of 0.8 mg kg^−1 body weight at a final volume of 100 μl. The control groups were administered vehicle injections at the same volume, route, and timing as experimental animals.
# To detect the active forms of caspase-1 in blood, spleen, and bone marrow samples, cell suspensions were stained with the fluorescent inhibitor probe FAM-YVAD-FMK (FAM FLICA, BioRad, Germany) for 30 minutes at 37° C. according to the manufacturer's instructions. After washing, the cells were stained for CD45^+CD3^+ T cells and CD45^+Cd11b^+ monocytes. The flow cytometry data was acquired on a BD FACSVerse (for representative gating strategy, see FIG. 10B).
# splenic CD3^+ T cells = experiment: Splenic T cell counts by FACS after experimental stroke; format: in vivo, mice; conditions: i.p. 30 minutes after stroke surgery; Z-IETD-FMK 0.8 mg kg^−1, Z-LEHD-FMK; normalized to sham
# Source text: as §1
# Anti-IL1β: Mice received two injections of antagonizing anti-IL-1β in sterile saline (clone: B122, InVivoMab, BioXcell, US), 1 hour prior to and 1 hour after surgery. Anti-IL-1β or the corresponding IgG control (Armenian hamster IgG, InVivoMab, BioXcell, US) was injected i.p. at a dose of 4 mg kg^−1 body weight in a final volume of 200 μl.
# Anti-FasL: Mice received two injections of antagonizing anti-FasL in sterile saline (clone: MFL3, InVivoMab, BioXcell, US), 1 hour prior to and 1 hour after surgery. […]
# T cells = experiment: BMDMs stimulated with rIL-1β, then T cell co-culture: T cell death; format: cell-based, mice; conditions: T cells added to rIL-1β-stimulated BMDMs in fresh medium, FACS 180 minutes later
# Experimental: Round-bottom tissue culture-treated 96-well plates were coated with 100 μl of PBS containing a mixture of […] purified NA/LE hamster anti-mouse CD3e (clone: 145-2C11, BD Pharmingen) and […] anti-mouse CD28 (clone: 37.51, Invitrogen), and then incubated overnight at 37° C. with 5% CO2. Spleens (wild type, Casp1^−/−) isolated from mice were homogenized into single splenocyte suspensions by using a 40 μm cell strainer followed by erythrolysis as described above. T cells were purified from splenocytes using a negative selection kit (MagniSort, Thermo Fisher) according to the manufacturer's instructions. Purity was reliably ≥90% as assessed by flow cytometry.
# Control-treated BMDMs received only FBS-containing culture media. […] Stimulation by secreted factors (left), and 2. Cell-cell contact (right).
# splenic T cells = experiment: rIL-1β i.p. injection in WT mice: T cell death in the spleen by FACS; format: in vivo; conditions: rIL-1β 100 or 1000 ng single i.p. injection, 6 h later
# Experimental: (§2) Murine recombinant IL-1β: Recombinant IL-1β (401-ML, R&D systems, US) was diluted in sterile PBS and administered intraperitoneally at a dose of 100 or 1000 ng per mouse in a total volume of 100 μl. The control group was administered vehicle injections at the same volume, route and timing as experimental animals.
# (§3) Mice were deeply anaesthetized with ketamine (120 mg/kg) and xylazine (16 mg/kg) and blood was drawn via cardiac puncture in 50 mM EDTA (Sigma-Aldrich). Plasma was isolated by centrifugation at 3,000 g for 10 minutes and stored at −80° C. until further use. The blood pellet was resuspended in DMEM and erythrocytes were lysed using isotonic ammonium chloride buffer. Immediately following cardiac puncture, mice were transcardially perfused with normal saline for dissection of bone marrow and spleen. […]
# (§4) The anti-mouse antibodies listed below (see Table 1) were used for surface marker staining of CD45^+ leukocytes, CD45^+CD11b^+ monocytes (+FasL^+ expression), CD3^+ T cells, CD3^+CD4^+ Thelper cells, CD3^+CD8^+ Tcytotox cells and CD19^+ B cells (for representative gating strategy, see FIG. 10A). […] Flow cytometric data was acquired using a BD FACSverse flow cytometer (BD Biosciences) and analyzed using FlowJo software (Treestar).
# monocytic FasL = experiment: rIL-1β i.p. injection in WT mice: monocytic FasL expression in the spleen by FACS; format: in vivo; conditions: rIL-1β 100 or 1000 ng single i.p. injection, 6 h later
# Experimental: as §2, §3, §4
# FasL on BMDMs = experiment: BMDMs treated with IL-1a, IL-1b or IL-18: FasL+ expression; format: cell-based, mice; conditions: BMDMs treated with 100 ng of IL-1a, IL-1b or IL-18 for 4 h
# [2] = test system: FasL^+CD11b^+ monocytes (BMDMs); conditions: BMDMs stimulated with rIL-1β in increasing doses, FACS 180 minutes after adding T cells
Molecule,caspase-1 activity in splenic CD11b+ monocytes [1],caspase-1 activity in splenic CD11b+ monocytes ([1]; listed as C9i),T cell death (splenic CD3^+ T cells),caspase-1 activity in splenic CD11b+ monocytes ([1]; listed as C8i),T cell death (T cells),T cell death (T cells; listed as recombinant IL-1β),T cell death in the spleen (splenic T cells; listed as rIL-1b),T cell death in the spleen (splenic T cells; listed as recombinant IL-1β),monocytic FasL expression in the spleen (monocytic FasL),monocytic FasL expression in the spleen (monocytic FasL; listed as recombinant IL-1β),FasL+ expression normalized to untreated control (FasL on BMDMs),ratio of FasL+CD11b+ monocytes / FasL expression [2],ratio of FasL+CD11b+ monocytes / FasL expression ([2]; listed as recombinant IL-1β)
COC(=O)CC[C@H](NC(=O)[C@H](CC(C)C)NC(=O)OCc1ccccc1)C(=O)N[C@@H](Cc1cnc[nH]1)C(=O)N[C@@H](CC(=O)OC)C(=O)CF [Z-LEHD-FMK] (Cbz-LE(OMe)HD(OMe)-CH2F),neither affected caspase-1 activation in monocytes,Neither caspase-8 nor caspase-9 inhibitor showed differences in caspase-1 activity compared to the vehicle-treated mice,–,–,–,–,–,–,–,–,–,–,–
CC[C@H](C)[C@H](NC(=O)OCc1ccccc1)C(=O)N[C@@H](CCC(=O)OC)C(=O)N[C@H](C(=O)N[C@@H](CC(=O)OC)C(=O)CF)[C@@H](C)O [Z-IETD-FMK] (Cbz-IE(OMe)TD(OMe)-CH2F),neither affected caspase-1 activation in monocytes,–,T cell death was only reduced in mice treated with the caspase-8,Neither caspase-8 nor caspase-9 inhibitor showed differences in caspase-1 activity compared to the vehicle-treated mice,–,–,–,–,–,–,–,–,–
B1,–,–,–,–,increased T cell death,increased FasL expression and T cell death but to a lesser degree than induced by the serum of stroke mice,dose-dependent increase in T cell death in the spleen,dose-dependently induced T cell death and FasL upregulation on myeloid cells,dose-dependent increase in associated monocytic FasL expression in the spleen,dose-dependently induced T cell death and FasL upregulation on myeloid cells,FasL upregulation on myeloid cells was predominantly induced by IL-1β,increased the ratio of FasL^+CD11b^+ monocytes,increased FasL expression and T cell death but to a lesser degree than induced by the serum of stroke mice
